From US10942183B2, “Methods of detecting progesterone receptor and of detecting an expression level” (REGENTS OF THE UNIVERSITY OF MINNESOTA, priority 2017, dated 2021)

Tested on: T47D cells
Test: Mammosphere formation in T47D cells
Assay type: cell-based, human
Details: T47D cells, EGF 20 ng/ml, 14 days
Protocol: Primary Mammospheres: Adherent cells were washed with PBS and dissociated enzymatically in 0.25% trypsin-EDTA (Invitrogen Corporation, Carlsbad, Calif.). Cells were sieved through a 40-μm sieve (BD FALCON, BD Biosciences, Bedford, Mass.) and analyzed microscopically for single-cellularity. Single cells were plated in ultra-low attachment plates (Corning, Inc., Corning, N.Y.) and cultured in a humid incubator. Cells were grown in a serum-free mammary epithelial basal medium (MEBM; Lonza Group, Basel, Switzerland) containing 1% B27 Supplement (Invitrogen Corporation, Carlsbad, Calif.), 1% penicillin-streptomycin (Invitrogen Corporation, Carlsbad, Calif.), 5 μg/ml insulin (Invitrogen Corporation, Carlsbad, Calif.), 20 ng/ml EGF (Sigma-Aldrich, St. Louis, Mo.), 1 ng/ml hydrocortisone (Sigma-Aldrich, St. Louis, Mo.), and 100 μM β-mercaptoethanol. […] Mammosphere Forming Efficiency (MFE) % was calculated by the number of mammospheres per well/number of cells seeded per well.
Secondary Mammospheres: Primary mammospheres were collected by centrifugation (5 min, 1000 rpm), and dissociated enzymatically in 0.25% typsin-EDTA. Cells were sieved through a 40-μm tip strainer (Bel-Art SP Scienceware, South Wayne, N.J.) and analyzed microscopically for single-cellularity. […] Mammosphere Forming Efficiency (MFE) % was calculated by the number of mammospheres per well/number of cells seeded per well. […]

B1: EGF: growth factor in mammosphere culture media, 20 ng/ml (protein, UniProt P01133 23-1207, looked up)
Pro-epidermal growth factor: PQHWSCPEGTLAGNGNSTCVGPAPFLIFSHGNSIFRIDTEGTNYEQLVVDAGVSVIMDFHYNEKRIYWVDLERQLLQRVFLNGSRQERVCNIEKNVSGMAINWINEEVIWSNQQEGIITVTDMKGNNSHILLSALKYPANVAVDPVERFIFWSSEVAGSLYRADLDGVGVKALLETSEKITAVSLDVLDKRLFWIQYNREGSNSLICSCDYDGGSVHISKHPTQHNLFAMSLFGDRIFYSTWKMKTIWIANKHTGKDMVRINLHSSFVPLGELKVVHPLAQPKAEDDTWEPEQKLCKLRKGNCSSTVCGQDLQSHLCMCAEGYALSRDRKYCEDVNECAFWNHGCTLGCKNTPGSYYCTCPVGFVLLPDGKRCHQLVSCPRNVSECSHDCVLTSEGPLCFCPEGSVLERDGKTCSGCSSPDNGGCSQLCVPLSPVSWECDCFPGYDLQLDEKSCAASGPQPFLLFANSQDIRHMHFDGTDYGTLLSQQMGMVYALDHDPVENKIYFAHTALKWIERANMDGSQRERLIEEGVDVPEGLAVDWIGRRFYWTDRGKSLIGRSDLNGKRSKIITKENISQPRGIAVHPMAKRLFWTDTGINPRIESSSLQGLGRLVIASSDLIWPSGITIDFLTDKLYWCDAKQSVIEMANLDGSKRRRLTQNDVGHPFAVAVFEDYVWFSDWAMPSVMRVNKRTGKDRVRLQGSMLKPSSLVVVHPLAKPGADPCLYQNGGCEHICKKRLGTAWCSCREGFMKASDGKTCLALDGHQLLAGGEVDLKNQVTPLDILSKTRVSEDNITESQHMLVAEIMVSDQDDCAPVGCSMYARCISEGEDATCQCLKGFAGDGKLCSDIDECEMGVPVCPPASSKCINTEGGYVCRCSEGYQGDGIHCLDIDECQLGEHSCGENASCTNTEGGYTCMCAGRLSEPGLICPDSTPPPHLREDDHHYSVRNSDSECPLSHDGYCLHDGVCMYIEALDKYACNCVVGYIGERCQYRDLKWWELRHAGHGQQQKVIVVAVCVVVLVMLLLLSLWGAHYYRTQKLLSKNPKNPYEESSRDVRSRRPADTEDGMSSCPQPWFVVIKEHQDLKNGGQPVAGEDGQAADGSMQPTSWRQEPQLCGMGTEQGCWIPVSSDKGSCPQVMERSFHMPSYGTQTLEGGVEKPHSLLSANPLWQQRALDPPHQMELTQ
modifications: Pro-epidermal growth factor
notes: growth factor in mammosphere culture media, 20 ng/ml
  mammosphere formation on removal and add-back of EGF: clear requirement for growth factor signaling
